B1: STK38L (parent)
chain: NWKETLVFPPEVPISEKAKDLILR

Variants of: B1
Experiment: protein stability index of a GFP-peptide fusion (GPS, HEK-293T) (PSI 1-6); higher = more stable
Conditions: c terminus: a fixed tail appended
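Note: lentivirally expressed fusions sorted by FACS into six bins by GFP to DsRed ratio, PSI derived from sequencing read proportions per bin multiplied by bin number.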

Variant | protein stability index
NWKETLVLPPEVPISEKAKDLILR | 2.94
NWKETLVEPPEVPISEKAKDLILR | 3.98
NWKETLVSPPEVPISEKAKDLILR | 3.73
NWKETLVGPPEVPISEKAKDLILR | 3.02
NWKETLVFPPEVPISIKAKDLILR | 2.14
NWKETLVFPPEVPISTKAKDLILR | 2.6
NWKETLVFPPEVPISGKAKDLILR | 2.31
NWKETLVFPPEVPISCKAKDLILR | 2.7
NWKETLVFPPEVPISPKAKDLILR | 3.02
NWKETLVFPPEVPISQKAKDLILR | 2.43
NWKETLVFPPEVPISEKAPDLILR | 3.17
NWKETLVFPPEVPISEKAQDLILR | 2.86
NWKETLVFPPEVPISEKAFDLILR | 1.95
NWKETLVFPPEVPISEKAYDLILR | 2.29
NWKETLVFPWEVPISEKAKDLILR | 1.78
NWKETLVFPIEVPISEKAKDLILR | 2.14
NWKETLVFPQEVPISEKAKDLILR | 3.3
NWKETLVFPSEVPISEKAKDLILR | 2.6
NWKETLVFGPEVPISEKAKDLILR | 1.93
NWKETLVFCPEVPISEKAKDLILR | 2.27
NWKETLVFIPEVPISEKAKDLILR | 2.75
NWKETLVFFPEVPISEKAKDLILR | 2.34
NWKETLVFPPEVPISEKAKDVILR | 3.53
NWKETLVFPPEVPISEKAKDNILR | 3.56

Variant | protein stability index
NWKETLVFPPEVPISEKAKDYILR | 2.71
NWKETLVFPPEVPIKEKAKDLILR | 3.09
NWKETLVFPPEVPICEKAKDLILR | 3.67
NWKETLVFPPEVPINEKAKDLILR | 2.62
NWKETLEFPPEVPISEKAKDLILR | 3.53
NWKETLRFPPEVPISEKAKDLILR | 2.72
NWKETLWFPPEVPISEKAKDLILR | 4.68
NWKETLCFPPEVPISEKAKDLILR | 3.35
NWKETLFFPPEVPISEKAKDLILR | 2.63
NWKETLYFPPEVPISEKAKDLILR | 2.9
NWKETLPFPPEVPISEKAKDLILR | 4.19
NWKETLVFPPEVPISEKAKDLWLR | 3.42
NWKETLVFPPEVPISEKAKDLFLR | 2.79
NWKETLVFPPEVPISEKAKDLTLR | 4.22
NWKETLVFPPELPISEKAKDLILR | 2.67
NWKETLVFPPETPISEKAKDLILR | 2.97
NWKETLVFPPEHPISEKAKDLILR | 2.72
NWKETLVFPPEVPISEKAKKLILR | 2.57
NWKETLVFPPEVPISEKAKNLILR | 2.63
NWKETLVFPPEVPISEKAKVLILR | 2.23
NWKETLVFPPEVPISEKAKTLILR | 2.92
NWKETLVFPPEVPISEKAKHLILR | 1.9
NWKETLVFPPEVPISEQAKDLILR | 3.05
NWKETLVFPPEVPISEDAKDLILR | 3.89

Variant | protein stability index
NWKETLVFPPEVPISEVAKDLILR | 2.21
NWKETLVFPPEVPISEMAKDLILR | 2.85
NWKETLVFPPEVPISEAAKDLILR | 3.17
NWKETLVFPPEVPISEKMKDLILR | 2.39
NWKETLVFPPEVPISEKNKDLILR | 3.38
NWKETLVFPPEVPISEKVKDLILR | 2.72
NWKETLVFPPEVPISEKAKDLINR | 4.09
NWKETLVFPPEVPISEKAKDLIAR | 3.75
NWKETLVFPPEVPISEKAKDLIKR | 4.24
NWKETLVFPPEVPISEKAKDLIVR | 3.27
NWKETLVFPPEVPISEKAKDLIRR | 4.19
NWKETLVFPPEVPISEKAKDLICR | 3.36
NWKETKVFPPEVPISEKAKDLILR | 3.53
NWKETRVFPPEVPISEKAKDLILR | 2.83
NWKETLVFPPEVPISEKAKDLILP | 3.43
NWKETLVFPPEVPISEKAKDLILY | 1.63
NWKETLVFPPEVPISEKAKDLILW | 2.11
NWKETLVFPPEVPISEKAKDLILI | 1.88
NWKETLVFPPEVPISEKAKDLILH | 3.16
NWKETLVFPPEVPISEKAKDLILG | 3.9
HWKETLVFPPEVPISEKAKDLILR | 3.04
KWKETLVFPPEVPISEKAKDLILR | 2.9
WWKETLVFPPEVPISEKAKDLILR | 1.78
NWCETLVFPPEVPISEKAKDLILR | 2.59

Variant | protein stability index
NWYETLVFPPEVPISEKAKDLILR | 2.18
NWDETLVFPPEVPISEKAKDLILR | 3.69
NWGETLVFPPEVPISEKAKDLILR | 3.17
NWLETLVFPPEVPISEKAKDLILR | 2.02
NEKETLVFPPEVPISEKAKDLILR | 4.15
NPKETLVFPPEVPISEKAKDLILR | 4.09
NSKETLVFPPEVPISEKAKDLILR | 3.01
NLKETLVFPPEVPISEKAKDLILR | 3.96
NWKETLVFPPYVPISEKAKDLILR | 2.21
NWKETLVFPPLVPISEKAKDLILR | 3.58
NWKETLVFPPHVPISEKAKDLILR | 2.81
NWKEPLVFPPEVPISEKAKDLILR | 3.42
NWKEELVFPPEVPISEKAKDLILR | 2.36
NWKEKLVFPPEVPISEKAKDLILR | 2.48
NWKEHLVFPPEVPISEKAKDLILR | 3.2
NWKEQLVFPPEVPISEKAKDLILR | 4.08
NWKRTLVFPPEVPISEKAKDLILR | 1.97
NWKTTLVFPPEVPISEKAKDLILR | 2.57
NWKWTLVFPPEVPISEKAKDLILR | 1.78
NWKETLVFPPEVCISEKAKDLILR | 2.37
NWKETLVFPPEVKISEKAKDLILR | 2.46
NWKETLVFPPEVGISEKAKDLILR | 3.1

From the supplement of paper PMC10567573
